Measured values from paper PMC3896488, “Complex Regulation of PKCβ2 and PDK-1/AKT by ROCK2 in Diabetic Heart” (PLoS ONE, 2014).

Target: Protein kinase C β2 (rat (endogenous in Wistar rat heart), UniProt P68403-2 1-673)
Experiment: cell-based or functional assay

Sequence of Protein kinase C β2 (P68403 other isoform, or with tags, fused parts or gaps): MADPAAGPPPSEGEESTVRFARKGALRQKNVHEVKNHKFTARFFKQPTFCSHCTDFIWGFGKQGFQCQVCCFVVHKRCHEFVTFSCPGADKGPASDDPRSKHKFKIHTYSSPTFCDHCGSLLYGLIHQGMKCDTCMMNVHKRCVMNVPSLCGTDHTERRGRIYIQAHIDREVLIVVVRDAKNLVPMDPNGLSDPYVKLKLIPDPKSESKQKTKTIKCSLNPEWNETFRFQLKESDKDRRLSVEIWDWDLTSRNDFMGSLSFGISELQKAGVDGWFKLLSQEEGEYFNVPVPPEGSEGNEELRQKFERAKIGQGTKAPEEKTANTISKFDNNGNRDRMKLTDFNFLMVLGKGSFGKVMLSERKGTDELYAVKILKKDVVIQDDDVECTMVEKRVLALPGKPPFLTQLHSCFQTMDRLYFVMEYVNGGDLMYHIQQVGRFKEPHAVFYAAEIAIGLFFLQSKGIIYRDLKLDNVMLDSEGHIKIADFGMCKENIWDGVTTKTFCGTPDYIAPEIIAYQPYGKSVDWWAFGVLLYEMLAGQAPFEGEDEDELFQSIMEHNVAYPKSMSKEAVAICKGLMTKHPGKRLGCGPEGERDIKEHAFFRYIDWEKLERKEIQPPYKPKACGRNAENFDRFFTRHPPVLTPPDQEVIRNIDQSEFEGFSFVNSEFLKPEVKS

B1: ROCK2 (enzyme, rat (endogenous in Wistar rat heart), UniProt Q62868 1-1388, looked up)
chain: MSRPPPTGKMPGAPEAAAGDGAGAGRQRKLEALIRDPRSPINVESLLDGLNSLVLDLDFPALRKNKNIDNFLNRYEKIVKKIRGLQMKAEDYDVVKVIGRGAFGEVQLVRHKASQKVYAMKLLSKFEMIKRSDSAFFWEERDIMAFANSPWVVQLFCAFQDDRYLYMVMEYMPGGDLVNLMSNYDVPEKWAKFYTAEVVLALDAIHSMGLIHRDVKPDNMLLDKHGHLKLADFGTCMKMDETGMVHCDTAVGTPDYISPEVLKSQGGDGYYGRECDWWSVGVFLFEMLVGDTPFYADSLVGTYSKIMDHKNSLCFPEDTEISKHAKNLICAFLTDREVRLGRNGVEEIKSASFFKNDQWNWDNIRETAAPVVPELSSDIDSSNFDDIEDDKGDVETFPIPKAFVGNQLPFIGFTYFRENLLLSDSPPCRENDAIQTRKSEESQEIQKKLYALEEHLSSEVQAKEELEQKCKSINTRLEKTAKELEEEITFRKNVESTLRQLEREKALLQHKNAEYQRKADHEADKKRNLENDVNSLKDQLEDLKKRNQSSQISTEKVNQLQKQLDEANALLRTESDTAARLRKTQAESSKQIQQLESNNRDLQDKNCLLETAKLKLEKEFINLQSALESERRDRTHGSEIINDLQGRISGLEEDLKTGKTLLAKVELEKRQLQEKLTDLEKEKSNMEIDMTYQLKVIQQSLEQEEAEHKTTKARLADKNKIYESIEEAKSEAMKEMEKKLLEERSLKQKVENLLLEAEKRCSILDCDLKQSQQKLNELLKQKDVLNEDVRNLTLKIEQETQKRCLMQNDLKMQTQQVNTLKMSEKQIKQENNHLMEMKMNLEKQNAELRKERQDADGQMKELQDQLEAEQYFSTLYKTQVRELKEENEEKTKLCKELQQKKQDLQDERDSLAAQLEITLTKADSEQLARSIAEEQYSDLEKEKIMKELEIKEMMARHKQELTEKDATIASLEETNRTLTSDVANLANEKEELNNKLKDTQEQLSKLKDEEISAAAIKAQFEKQLLTERTLKTQAVNKLAEIMNRKEPVKRGSDTDVRRKEKENRKLHMELKSEREKLTQQMIKYQKELNEMQAQIAEESQIRIELQMTLDSKDSDIEQLRSQLQALHIGMDSSSIGSGPGDAEPDDGFPESRLEGWLSLPVRNNTKKFGWVKKYVIVSSKKILFYDSEQDKEQSNPYMVLDIDKLFHVRPVTQTDVYRADAKEIPRIFQILYANEGESKKEPEFPVEPVGEKSNYICHKGHEFIPTLYHFPTNCEACMKPLWHMFKPPPALECSRCHIKCHKDHMDKKEEIIAPCKVYYDISSAKNLLLLANSTEEQQKWVSRLVKKIPKKPPAPDPFARSSPRTSMKIQQNQSIRRPSRQLAPNKPS
in vitro phosphorylation of dephosphorylated PKCβ2 at T641 with against without active ROCK2 (molar ratio 1:30, 400 µM ATP, 37°C, 45 min), Western blot: ~2 fold
